Source: US20050154192A1 (published 2005)

Experiments:
[1] = target: Recombinant Human IL-13 Rα1/Fc Chimera (R&D) (human) (UniProt P78552); experiment: SPR (BIACORE), same format; rat IgG control, by definition the 0% reference
[2] = target: Recombinant Mouse IL-13 Rα1/Fc Chimera (R&D) (mouse) (UniProt O09030); experiment: as above
[3] = target: T1, IL13 receptor α1 on TF-1 cells (human, UniProt P78552 22-427); experiment: cell-based or functional assay
T1 sequence (looked up): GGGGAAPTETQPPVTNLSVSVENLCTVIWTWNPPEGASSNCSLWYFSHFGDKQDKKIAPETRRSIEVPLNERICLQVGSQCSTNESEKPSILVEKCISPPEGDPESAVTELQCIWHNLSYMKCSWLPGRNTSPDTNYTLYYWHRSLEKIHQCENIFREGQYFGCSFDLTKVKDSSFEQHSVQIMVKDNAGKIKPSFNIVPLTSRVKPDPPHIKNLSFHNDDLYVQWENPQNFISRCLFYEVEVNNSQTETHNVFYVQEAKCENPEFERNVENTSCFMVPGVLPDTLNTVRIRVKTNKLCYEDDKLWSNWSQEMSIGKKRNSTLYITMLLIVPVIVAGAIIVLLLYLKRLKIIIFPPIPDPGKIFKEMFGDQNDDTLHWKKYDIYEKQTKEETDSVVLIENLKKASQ

[4] = target: T2, human IL13 Rα1-Fc (fusion of the extracellular domain of human IL13 receptor α1 and an Fc fragment of human … (human, UniProt P78552 22-343)); experiment: SPR (BIACORE), human IL13 Rα1-Fc immobilized on CM5 chip, antibody at 2, 10 and 50 µg/ml
T2 construct: extracellular domain; also called soluble IL13 receptor α1-Fc; not shown: human IgG1 Fc domain (cDNA from plasmid pM1304, WO97/42319), joined in frame over a HindIII site
T2 sequence (looked up): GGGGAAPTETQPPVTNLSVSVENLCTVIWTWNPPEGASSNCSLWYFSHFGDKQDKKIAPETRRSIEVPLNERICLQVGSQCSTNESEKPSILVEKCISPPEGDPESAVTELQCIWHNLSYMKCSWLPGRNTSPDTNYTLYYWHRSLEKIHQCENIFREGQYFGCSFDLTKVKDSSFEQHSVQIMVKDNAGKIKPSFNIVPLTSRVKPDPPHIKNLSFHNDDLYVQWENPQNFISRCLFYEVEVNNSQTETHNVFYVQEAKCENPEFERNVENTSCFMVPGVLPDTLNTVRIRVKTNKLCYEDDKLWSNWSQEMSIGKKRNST
Method: The association constant of the anti-IL13 Rα1 antibody prepared was determined using BIACORE. That is, a CM5 chip (Biacore CO., Ltd.) was activated for 7 minutes according to the manual of Biacore Co., Ltd. and then 100 μg/ml of the human IL13 Rα1-Fc prepared in Example 1 was immobilized thereon. An HBS-EP buffer solution (Biacore Co., Ltd) was flown at a flow rate of 20 μl/min, and then the association constants of four kinds of the antibodies diluted to 2, 10, and 50 μg/ml with the same buffer solution were obtained. The binding antibody was dissociated with a 0.1-M glycine hydrochloric acid buffer solution (pH 3.0) and the chip was then used again. The resulting data was analyzed using analyzing software, BIA evaluation, Biacore Co., Ltd., and the dissociation constant (Kd) thereof was calculated.

Chain of Recombinant Mouse IL-13 Rα1/Fc Chimera (R&D) (mouse) (O09030 26-340 limits assumed, change not shown): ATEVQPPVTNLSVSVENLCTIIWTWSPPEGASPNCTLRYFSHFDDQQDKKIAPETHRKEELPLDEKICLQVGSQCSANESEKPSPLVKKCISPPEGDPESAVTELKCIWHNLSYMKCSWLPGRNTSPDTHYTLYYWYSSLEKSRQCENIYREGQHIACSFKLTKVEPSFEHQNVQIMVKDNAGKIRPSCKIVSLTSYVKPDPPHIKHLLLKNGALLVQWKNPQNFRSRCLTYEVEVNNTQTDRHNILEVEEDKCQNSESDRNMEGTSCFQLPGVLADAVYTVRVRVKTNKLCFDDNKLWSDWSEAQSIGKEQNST

## rat IgG (control antibody)
[1]
  Human IL13/IL13 R binding inhibition rate (%): 0%
[2]
  Mouse IL13/IL13 R binding inhibition rate (%): 0%

B1: F997-13-1 antibody (antibody, IgG1, V domains shown)
VH: EVKLQQSGGGLVQPGRSMKLSCAASGFTFSNYGMAWVRQAPKKGLEWVAYISYDGGSTYYRDSVKGRFTISRDNAKSTLYLQMDSLRSEDTATYHCTTPHYGYKYWYFDFWGQGTTVTVSS
VL: DIQMTQSPASLSASLGETVTIECRASEDIYNGLAWYQQKPGKSPQLLIYHANSSHTGVPSRFSGSGSGTQYSLKIDSLQSEDVANYFCQQYYDYPTFGAGTKLELKR
[3]
  IC50 (µg/mL) for cell response with IL 4 (1 ng/mL); TF-1 proliferation: > 10 µg/mL
  IC50 (µg/mL) for cell response with IL 13 (1 ng/mL); TF-1 proliferation: 6.6 µg/mL
[4]
  Kd: 4.1 nM

B2: F997-20-1 antibody (antibody, IgG1, V domains shown)
VH: EVQLQQSGGGLVQPGRSLNLSCAASGFTFNDYYMAWVRQAPKKGLEWVATIIYDGTRTYYRDSVKGRFTISRDNAKSTLYLQMDSLRSEDTATYYCATPWGSWGQGTTVTVSS
VL: DIQMTQSPSSMPASLGERVTISCRASQGISNFLNWYQQKADGTIKPLIYYTSNLQSAVPSRFSGSGSGTDYSLTISSLEPEDFAMYYCQQYDSSPWTFGGGTKLEITR
[3]
  IC50 (µg/mL) for cell response with IL 4 (1 ng/mL); TF-1 proliferation: > 10 µg/mL
  IC50 (µg/mL) for cell response with IL 13 (1 ng/mL); TF-1 proliferation: 1.2 µg/mL
[4]
  Kd: 1.07 nM
